Changes are numbered by the printed parent chain.
T1: TPP-1984, hTNFRSF12 amino acids 28-68-CT-His (human)
T1 construct: Monomeric ectodomain with C-terminal deletion of amino acids 69 to 80; also called TTP-1984; TWEAKR (28-68)-HIS
T1 chain: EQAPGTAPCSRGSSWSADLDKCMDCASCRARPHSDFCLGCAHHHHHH

B1: 18.3.3(TPP-2193) (antibody, mouse IgG2a, kappa, V domains shown)
VH: EVKLGESGGGLVQPGGSMKLSCVASGFPFTKYWMNWVRQSPEKGLEWVAEIRLKSDNYATHYAESAKGRFTISRDDSRSSVYLQMNNLRAEDTAIYYCSPTYADTMDYWGQGTSVTVSS
VL: DIVLTQSPASLAVSLGQRATISCKASQSVSTSTYSYMQWYQQRPGQSPKLLIKYASKLDSGVPARFSGSGSGTDFTLNIHPVEEEDTATYYCQHSWELPYTFGGGTRLEIKR
notes: murine IgG2a; variable domains from WO2009/020933 with a murine IgG2 constant region added; biotinylated IgG in the ELISA
B2: P3G5(TPP-2195) (antibody, mouse IgG2a, kappa, V domains shown)
VH: QVQLQQSGPEVVRPGVSVKISCKGSGYTFTDYGIHWVKQSHAKSLEWIGVISTYNGYTNYNQKFKGKATMTVDKSSSTAYMELARLTSEDSAIYYCARAYYGNLYYAMDYWGQGTSVTVSS
VL: DIVLTQSPASLAVSLGQRATISCRANKSVSTSSYSYMHWYQQKPGQPPKLLIKYASNLESGVPARFSGSGSGTDFILNIHPVEEEDAATYYCQHSRELPFTFGSGTKLEIKR
notes: murine IgG2a; variable domains from WO2009/140177 with a murine IgG2 constant region added; biotinylated IgG in the ELISA
B3: P4A8(TPP-1324) (antibody, human IgG1, kappa, V domains shown)
VH: QVQLVQSGAEVKKPGASVKVSCKGSGYTFTDYGMHWVRQAPGQGLEWMGVISTYNGYTNYNQKFKGRVTMTVDKSTSTAYMELRSLRSDDTAVYYCARAYYGNLYYAMDYWGQGTLVTVSS
VL: B2 VL with N26S, I76S, V82M, E85D, A87T, T89M, Y91F, S104G
notes: human IgG1; variable domains from WO2009/140177 with a human IgG1 constant region added; biotinylated IgG in the ELISA
B4: TPP-2084 (antibody, V domains shown)
VH: EVQLLESGGGLVQPGGSLRLSCAASGFTFSPYPMMWVRQAPGKGLEWVSYISPSGGSTHYADSVKGRFTISRDNSKNTLYLQMNSLRAEDTAVYYCARGGDTYFDYFDYWGQGTLVTVSS
VL: not shown
notes: human IgG1
B5: TPP-2090 (antibody, V domains shown)
VH: B4 VH with M35I
VL: DIQMTQSPSSLSASVGDRVTITCRASQSISGYLNWYQQKPGKAPKLLIYQASSLQSGVPSRFSGSGSGTDFTLTISSLQPEDFATYYCQQSYTSPFITFGQGTKVEIKR
notes: human IgG1; also called anti-TWEAKR AK-1
B6: 136.1(TPP-2194) (antibody, mouse IgG2a, kappa, V domains shown)
VH: EVKLEESGGGLVQPGGSMKLSCVASGFTFNNYWMSWVRQSPEKGLEWLAEIRLKSDNYATHYAESVKGKFTISRDDSKSRLYLQMNNLRAENTGIYYCTGGFADYFDYWGQGTTLTVSS
VL: B1 VL with A12T, K24R, T33S, S47P, S56T, K57N, T87A, L98I, R107K
notes: Comparative antibody; murine IgG2a
B7: P3G5(TPP-2195) (antibody, mouse IgG2a, kappa, V domains shown)
VH: B2 VH
VL: B2 VL
notes: as for B6
B8: TPP-2090 (antibody, human IgG1, kappa, V domains shown)
VH: B4 VH with M35I
VL: B5 VL
notes: Human IgG1; biotinylated (biotin-LC-NHS) when used as soluble partner in the ELISAs; also called anti-TWEAKR AK-1
B9: TPP-2084 (antibody, human IgG1, kappa, V domains shown)
VH: B4 VH
VL: not shown
notes: Human IgG1; biotinylated when used as soluble partner in the ELISAs

The binders below were run against T2, hTNFRSF12 amino acids a28-80-T33Q-hIgG1-Fc (human) (assay: ELISA: TWEAKR-Fc construct coated at 62 ng/ml, biotinylated IgG titrated from 100 nM; token + marks IC50 of 1 to […] pM).
T2 construct: TWEAKR-Fc mutein, coated on the ELISA plate; also called TPP-1986
Procedure: (§1) To obtain dose-reaction data, the different TWEAKR-Fc muteins were coated at a low concentration (62 ng/ml) onto a 384-well Maxisorb ELISA plate, and a serial 2-fold dilution of biotinylated IgG beginning with a concentration of 100 nM was used as a soluble binding partner. Detection was carried out using streptavidin-HRP and Amplex Red.
(§2) IgGs were biotinylated using an about 2-fold molar excess of biotin-LC-NHS (Pierce; Cat. No. 21347) according to the instructions of the manufacturer and desalted using Zeba desalting columns (Pierce; Cat. No. 89889).

Binding result, binds:
B1
B2
B3
B4
B5

What follows are binders tested against T3, hTNFRSF12 amino acids a28-80-S40R-hIgG1-Fc (human) in the same assay as above.
T3 construct: TWEAKR-Fc mutein, coated on the ELISA plate; also called TPP-1987
Procedure: as §1, §2

Binding result, binds:
B1
B2
B3
B4
B5

These binders were tested against T4, hTNFRSF12 amino acids a28-80-M50A-hIgG1-Fc (human) in the same assay as above.
T4 construct: TWEAKR-Fc mutein, coated on the ELISA plate; also called TPP-1988
Procedure: as §1, §2

Binding result, binds:
B1
B2
B3
B4
B5

The binders below were run against T5, hTNFRSF12 amino acids a28-80-R56P-hIgG1-Fc (human) in the same assay as above.
T5 construct: TWEAKR-Fc mutein, coated on the ELISA plate; also called TPP-2683
Procedure: as §1, §2

Binding result, binds:
B2
B4
B5

The binders below were run against T6, hTNFRSF12 amino acids a28-80-H60K-hIgG1-Fc (human) in the same assay as above.
T6 construct: TWEAKR-Fc mutein, coated on the ELISA plate; also called TPP-1989
Procedure: as §1, §2

Binding result, binds:
B1
B2
B3
B4
B5

These binders were tested against T7, hTNFRSF12 amino acids a28-80-L65Q-hIgG1-Fc (human) in the same assay as above.
T7 construct: TWEAKR-Fc mutein, coated on the ELISA plate
Procedure: as §1, §2

Binding result, binds:
B1
B2
B3
B4
B5

Each binder was assayed against T8, hTNFRSF12 amino acids a28-80-hIgG1-Fc (human) in the same assay as above.
T8 construct: wild-type TWEAKR-Fc (dimeric Fc fusion), coated on the ELISA plate; also called TPP-599; HUMAN-TNFRSF12Aaa28-80-hIgG1-Fc
Procedure: as §1, §2

Binding result, binds:
B1
B2
B3
B4
B5

Each binder was assayed against T9, TPP-2203, TWEAKR-ECD-34-68-hIgGFc-His (human) (assay: ELISA: TPP-2203 (TWEAKR 34-68-Fc) coated at 1 µg/ml; biotinylated IgG at 0.08 µg/ml (open bars) and 0.3 µg/ml (solid bars); streptavidin-HRP, Amplex Red; Y = signal [Rfu]).
T9 construct: also called TWEAKR (34-68)-Fc fusion protein; N- and C-terminally truncated ectodomain
Procedure: FIG. 4: Interaction of the cysteine-rich domain of TWEAKR with antibodies according to the invention and reference antibodies. What is shown is the result of an ELISA with TWEAKR (34-68)-Fc fusion protein coating (TPP-2203, 1 μg/ml) and 0.08 μg/ml (open bars) and 0.3 μ/ml (solid bars) of biotinylated IgG as soluble binding partner. Detection was carried out using streptavidin-HRP and Amplex Red substrate.
(§3) Detection was carried out using streptavidin-HRP and Amplex Red substrate. IgGs were biotinylated using an about 2-fold molar excess of biotin-LC-NHS (Pierce; Cat. No. 21347) according to the instructions of the manufacturer and desalted using Zeba desalting columns (Pierce; Cat. No. 89889).

Binding result, binds:
B6
B7
B8
B9

Biological target: T1, TPP-1984, hTNFRSF12 amino acids …
Test: ELISA: TPP-1984 (TWEAKR 28-68-HIS) coated at 1 µg/ml; biotinylated IgG at 0.08 µg/ml (open bars) and 0.3 µg/ml (solid bars); streptavidin-HRP, Amplex Red; Y = signal [Rfu]
Procedure: FIG. 5: Interaction of TWEAKR (28-68) with antibodies according to the invention and reference antibodies. What is shown is the result of an ELISA with TWEAKR (28-68)-HIS coating (TTP-1984, 1 μg/ml) and 0.08 μg/ml (open bars) and 0.3 μ/ml (solid bars) of biotinylated IgG as soluble binding partner. Detection was carried out using streptavidin-HRP and Amplex Red substrate.
as §3

Binding result, binds:
B6
B8
B9

What follows are binders tested against T10, TPP-2202, TWEAKR-ECD-28-80-hIgGFc-His (human) (assay: ELISA: TPP-2202 (TWEAKR 28-80-Fc) coated at 1 µg/ml; biotinylated IgG at 0.08 µg/ml (open bars) and 0.3 µg/ml (solid bars; legend of FIG. 3 prints 0.03); streptavidin-HRP, Amplex Red; Y = signal [Rfu]).
T10 construct: also called TWEAKR-Fc fusion protein; full-length ectodomain Fc fusion
Procedure: FIG. 3: Interaction of the TWEAKR ectodomain with antibodies and reference antibodies. […] Detection was carried out using streptavidin-HRP and Amplex Red substrate.
as §3

Binding result, binds:
B6
B7
B8
B9

— patent US20160346402A1 (Bayer, published 2016)
